Patent US20170015742A1 (published 2017)
Positions count from the first letter of the chain named. Values belong to the binder of their own block, whether it stands above or below them.

How the values were obtained:
Human VEGF-A 165 [1] = biological target: T1, Human VEGF-A 165 (human, UniProt P15692 207-395); test: receptor competition ELISA, hVEGF165 binding to coated hVEGF-R2-Fc
T1 construct: Recombinant; also called huVEGF-A165; hVEGF165
Description: To identify molecules that could block the binding of hVEGF₁₆₅ to the hVEGF-R2 (KDR/Flk-1) receptor, a competition ELISA was performed. […] Plates were then washed four times with wash buffer (TBS, 0.05% Tween-20) and blocked with Superblock blocking buffer (Thermo Scientific, cat#37535). […] The pre-incubated sample/hVEGF₁₆₅ complex was added to the coated plate at 50 μL in duplicate and incubated for 30 minutes at 25° C. with shaking. Following incubation, plates were washed four times with wash buffer. Streptavidin-polyHRP-40 (Fitzgerald cal#65r-s104phrp) was diluted in assay diluent (10% Superblock containing 0.05% surfactamps) and added to plates (50 μL) for 45 minutes at 25° C. with shaking. Plates were washed four times with wash buffer and developed with the addition of Enhanced K-blue TMB substrate (Neogen cat#308177). The reaction was stopped with 2N sulfuric acid (VWR, cat# BDH3500-1) and the absorbance was read at 450 nm-570 nm. A decrease in observed optical density indicates the test molecule is blocking the hVEGF₁₆₅ binding to the hVEGF-R2-Fc. Data was analyzed using Softmax Pro 4.8 software and IC₅₀ values calculated using a sigmoidal dose response (variable slope) fit in GraphPad Prism 5.
Anti-VEGF-A antibodies derived from rat hybridomas were characterized for binding, function and cross-reactivity in a panel of assays. Supernatants were tested for the ability to bind hVEGF₁₆₅ (Example 1.3) and block binding of hVEGF₁₆₅ to hVEGFR2 in a competition ELISA format (Example 1.4).
T1 sequence (P15692 other isoform, or with tags, fused parts or gaps limits assumed): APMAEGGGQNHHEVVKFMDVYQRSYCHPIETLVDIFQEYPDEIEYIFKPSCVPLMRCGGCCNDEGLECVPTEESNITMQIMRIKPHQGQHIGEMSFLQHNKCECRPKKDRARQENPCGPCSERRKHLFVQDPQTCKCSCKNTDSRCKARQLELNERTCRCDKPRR

recombinant rat PDGF-BB = recombinant rat PDGF-BB (rat, UniProt Q05028 74-182); test: cell-based or functional assay
Sequence of recombinant rat PDGF-BB (Q05028 74-182 limits assumed): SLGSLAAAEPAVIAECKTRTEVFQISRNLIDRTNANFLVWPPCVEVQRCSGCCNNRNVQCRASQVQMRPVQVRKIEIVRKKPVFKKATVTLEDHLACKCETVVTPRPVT

[2] = biological target: recombinant murine PDGF-BB (mouse, UniProt P31240 82-190); test: cell-based or functional assay
Sequence of recombinant murine PDGF-BB (P31240 82-190 limits assumed): as the sequence (Q05028 74-182 limits assumed) above, with V83I, V102I counted along it

[3] = biological target: recombinant human PDGF-BB (human, UniProt P01127 82-190); test: cell-based or functional assay
Sequence of recombinant human PDGF-BB (P01127 82-190 limits assumed): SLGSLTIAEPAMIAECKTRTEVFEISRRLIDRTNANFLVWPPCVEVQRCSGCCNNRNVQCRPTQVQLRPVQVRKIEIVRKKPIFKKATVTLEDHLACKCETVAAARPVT

[4] = biological target: recombinant human VEGF165 (human, UniProt P15692 207-395); test: cell-based or functional assay
Sequence of recombinant human VEGF165 (P15692 other isoform, or with tags, fused parts or gaps limits assumed): as the sequence (P15692 other isoform, or with tags, fused parts or gaps limits assumed) above

Human VEGF-A 165 [5] = biological target: T2, Human VEGF-A 165 (human, UniProt P15692 207-395); test: cell-based or functional assay
T2 sequence (P15692 other isoform, or with tags, fused parts or gaps limits assumed): as above

Human VEGF-A 165 [6] = biological target: T2, Human VEGF-A 165; test: SPR (Biacore), antibody captured via anti-human Fc, antigen in solution
Description: For example, approximately 9000 RU of goat anti-human Fc specific polyclonal antibody (Thermo Fisher Scientific Inc., Rockford, Ill.) diluted in 10 mM sodium acetate (pH 4.5) is directly immobilized across a CM5 research grade biosensor chip using a standard amine coupling kit according to manufacturer's instructions and procedures at 25 μg/ml. Unreacted moieties on the biosensor surface were blocked with ethanolamine. For kinetic analysis, rate equations derived from the 1:1 Langmuir binding model were fitted simultaneously to multiple antigen injections (using global fit analysis) with the use of Scrubber 2 (BioLogic Software), Biacore Biaevaluation 4.0.1 software or Biacore T100 Evaluation software. Purified antibodies or DVD-Ig molecules were diluted in running buffer for capture across goat anti-human Fc reaction surfaces. Antibodies or DVD-Ig molecules to be captured as a ligand (1 μg/ml) were injected over reaction matrices at a flow rate of 10 μl/minute. During the assay, all measurements were referenced against the capture surface alone (i.e., with no captured antibody or DVD-Ig molecule). […] The equilibrium dissociation constant KD (M) of the reaction between antibodies and the target antigen was then calculated from the kinetic rate constants by the following formula: KD=Koff/Kₒₙ. Binding was recorded as a function of time and kinetic rate constants were calculated.

B2: 4G8.3-LS-9E8.4 anti-VEGF-A/anti-PDGF-BB DVD-Ig (PR-1564013) (bispecific antibody, human IgG1, kappa, L234A L235A)
heavy: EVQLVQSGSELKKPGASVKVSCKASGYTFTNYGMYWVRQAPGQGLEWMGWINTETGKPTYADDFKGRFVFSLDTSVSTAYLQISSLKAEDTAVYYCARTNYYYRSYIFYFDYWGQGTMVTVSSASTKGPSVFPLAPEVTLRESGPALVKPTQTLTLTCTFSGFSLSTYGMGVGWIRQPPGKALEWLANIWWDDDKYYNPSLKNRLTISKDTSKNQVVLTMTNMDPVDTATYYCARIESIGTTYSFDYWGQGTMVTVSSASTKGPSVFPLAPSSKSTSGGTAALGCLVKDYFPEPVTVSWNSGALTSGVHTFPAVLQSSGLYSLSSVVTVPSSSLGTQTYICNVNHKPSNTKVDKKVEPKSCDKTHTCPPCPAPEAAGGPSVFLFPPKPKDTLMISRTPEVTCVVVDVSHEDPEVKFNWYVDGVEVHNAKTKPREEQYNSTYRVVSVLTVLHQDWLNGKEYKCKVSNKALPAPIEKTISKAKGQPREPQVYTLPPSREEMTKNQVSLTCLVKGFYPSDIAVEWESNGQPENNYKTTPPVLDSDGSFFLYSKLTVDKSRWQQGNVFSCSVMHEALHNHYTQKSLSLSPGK
light: DTVLTQSPATLSLSPGERATLSCRASESVSTHMHWYQQKPGQAPRLLIYGASNLESGVPARFSGSGSGTDFTLTISSLEPEDFAVYFCQQSWNDPFTFGQGTKLEIKRTVAAPEFVLTQSPGTLSLSPGERATLSCERSSGDIGDSYVSWYQQKPGQAPRLVIYADDQRPSGIPDRFSGSGSGTDFTLTISRLEPEDFAVYYCQSYDINIDIVFGGGTKVEIKGTVAAPSVFIFPPSDEQLKSGTASVVCLLNNFYPREAKVQWKVDNALQSGNSQESVTEQDSKDSTYSLSSTLTLSKADYEKHKVYACEVTHQGLSSPVTKSFNRGEC
Potency IC50 (nM) ratPDGF-BB (NIH-3T3 proliferation) (recombinant rat PDGF-BB): 0.21 nM | Potency IC50 (nM) mPDGF-BB (NIH-3T3 proliferation) [2]: 0.11 nM

B3: BEW-6C2-C8 (antibody, IgG2b, V domains shown)
VH: EVQLVESGGGLVQPGSSLKLSCAASGFTFSYYGMHWIRQAPKKGLEWMALIYYDSSKMYYADSVKGRFTISRDNSKNTLYLEMNSLRSEDTAMYYCAAGGTAPVYWGQGVMVTVSS
VL: NIQLTQSPSLLSASVGDRVTLSCKGSQNIANYLAWYQQKLGEAPKLLIYNTDSLQTGIPSRFSGSGSGTDYTLTISSLQPEDVATYFCYQSNNGYTFGAGTKLELR
notes: Rat hybridoma antibody, isotype IgG2b/kappa
IC50 (Human VEGF-A 165 [1]): 197 pM

B5: BEW-9A8-E2 (antibody, IgG2a, V domains shown)
VH: QIQLVQSGPELKKPGESVKISCKASGYTFTNYGMYWVKQAPGQGLQYMGWINTETGKPIYADDFKGRFVFFLETSASTAYLQINNLKNEDMATFFCARVDYDGSFWFAYWGQGTLVTVSS
VL: DTVLTQSPALAVSPGERVSISCRASESVSTVIHWYQQKPGQQPKLLIHGASNLESGVPARFSGSGSGTDFTLTIDPVEADDTATYFCQQHWNDPPTFGAGTKLEMK
notes: Rat hybridoma antibody, isotype IgG2a/kappa
IC50 (Human VEGF-A 165 [1]): 249 pM

B6: BEW-8E6-E4 (antibody, IgG2a, V domains shown)
VH: QIQLVQSGPELKKPGESVKISCKASGYTFTDYAMHWVKQAPGKVLKWMGWINTFTGKPTYIDDFKGRFVFSLEASASTANLQISDLKNEDTATYFCARGNYYSGYWYFDFWGPGTMVTMSS
VL: DIQMTQSPASLSASLGETISIECRASEDISSNLAWYQQKSGKSPQLLIFAANRLQDGVPSRFSGSGSGTQFSLKISGMQPEDEGDYFCLQGSKFYTFGAGTKLELK
notes: as for B5
IC50 (Human VEGF-A 165 [1]): 342 pM

B7: 4G8.3-GS-9E8.4 anti-VEGF-A/anti-PDGF-BB DVD-Ig (PR-1564010) (bispecific antibody, human IgG1, kappa, L234A L235A)
heavy: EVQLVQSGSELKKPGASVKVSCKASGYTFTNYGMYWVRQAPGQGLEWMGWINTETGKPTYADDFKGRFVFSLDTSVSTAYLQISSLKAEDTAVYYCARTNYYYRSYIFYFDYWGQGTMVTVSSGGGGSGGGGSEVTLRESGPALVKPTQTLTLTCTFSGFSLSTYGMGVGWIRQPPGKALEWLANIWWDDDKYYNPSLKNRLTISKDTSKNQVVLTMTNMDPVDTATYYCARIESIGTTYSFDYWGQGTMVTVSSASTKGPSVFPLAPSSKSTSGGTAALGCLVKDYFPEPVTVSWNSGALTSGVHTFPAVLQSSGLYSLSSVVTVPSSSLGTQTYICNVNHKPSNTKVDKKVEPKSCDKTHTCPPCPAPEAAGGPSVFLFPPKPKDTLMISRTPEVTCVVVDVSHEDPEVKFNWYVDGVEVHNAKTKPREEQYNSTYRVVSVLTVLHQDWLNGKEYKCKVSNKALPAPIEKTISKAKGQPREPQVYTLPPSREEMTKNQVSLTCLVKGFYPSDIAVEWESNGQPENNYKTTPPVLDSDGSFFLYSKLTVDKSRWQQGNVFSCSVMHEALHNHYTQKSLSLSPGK
light: DTVLTQSPATLSLSPGERATLSCRASESVSTHMHWYQQKPGQAPRLLIYGASNLESGVPARFSGSGSGTDFTLTISSLEPEDFAVYFCQQSWNDPFTFGQGTKLEIKRGGSGGGGSGEFVLTQSPGTLSLSPGERATLSCERSSGDIGDSYVSWYQQKPGQAPRLVIYADDQRPSGIPDRFSGSGSGTDFTLTISRLEPEDFAVYYCQSYDINIDIVFGGGTKVEIKGTVAAPSVFIFPPSDEQLKSGTASVVCLLNNFYPREAKVQWKVDNALQSGNSQESVTEQDSKDSTYSLSSTLTLSKADYEKHKVYACEVTHQGLSSPVTKSFNRGEC
Potency IC50 (nM) ratPDGF-BB (NIH-3T3 proliferation) (recombinant rat PDGF-BB): 1.36 nM | Potency IC50 (nM) mPDGF-BB (NIH-3T3 proliferation) [2]: 0.44 nM

B8: 9E8.4-GS-4G8.3 DVD-Ig (PR-1563988) (bispecific antibody, human IgG1, kappa, L234A L235A)
heavy: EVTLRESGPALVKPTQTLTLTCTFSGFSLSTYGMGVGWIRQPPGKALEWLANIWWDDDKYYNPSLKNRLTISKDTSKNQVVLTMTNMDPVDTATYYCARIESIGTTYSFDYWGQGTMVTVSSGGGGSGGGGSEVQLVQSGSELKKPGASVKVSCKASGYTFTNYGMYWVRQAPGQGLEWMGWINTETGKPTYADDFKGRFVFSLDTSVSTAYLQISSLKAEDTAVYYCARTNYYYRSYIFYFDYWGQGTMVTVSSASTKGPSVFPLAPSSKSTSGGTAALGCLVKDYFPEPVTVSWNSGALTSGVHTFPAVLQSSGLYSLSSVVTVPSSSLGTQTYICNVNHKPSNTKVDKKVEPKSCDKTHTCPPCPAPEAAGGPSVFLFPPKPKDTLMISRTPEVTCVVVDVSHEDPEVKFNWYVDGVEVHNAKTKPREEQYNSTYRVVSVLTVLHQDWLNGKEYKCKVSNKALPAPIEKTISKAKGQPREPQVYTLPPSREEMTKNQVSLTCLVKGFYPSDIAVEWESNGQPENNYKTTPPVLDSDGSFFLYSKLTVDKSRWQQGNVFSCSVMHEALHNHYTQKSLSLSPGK
light: EFVLTQSPGTLSLSPGERATLSCERSSGDIGDSYVSWYQQKPGQAPRLVIYADDQRPSGIPDRFSGSGSGTDFTLTISRLEPEDFAVYYCQSYDINIDIVFGGGTKVEIKGGGSGGGGSGDTVLTQSPATLSLSPGERATLSCRASESVSTHMHWYQQKPGQAPRLLIYGASNLESGVPARFSGSGSGTDFTLTISSLEPEDFAVYFCQQSWNDPFTFGQGTKLEIKRTVAAPSVFIFPPSDEQLKSGTASVVCLLNNFYPREAKVQWKVDNALQSGNSQESVTEQDSKDSTYSLSSTLTLSKADYEKHKVYACEVTHQGLSSPVTKSFNRGEC
NIH-3T3 hPDGF-BB Potency IC50 [3]: 76 pM | HMVEC-d hVEGF165 Potency IC50 [4]: 2640 pM

B9: 4G8.3-SL-9E8.4 anti-VEGF-A/anti-PDGF-BB DVD-Ig (PR-1564012) (bispecific antibody, human IgG1, kappa, L234A L235A)
heavy: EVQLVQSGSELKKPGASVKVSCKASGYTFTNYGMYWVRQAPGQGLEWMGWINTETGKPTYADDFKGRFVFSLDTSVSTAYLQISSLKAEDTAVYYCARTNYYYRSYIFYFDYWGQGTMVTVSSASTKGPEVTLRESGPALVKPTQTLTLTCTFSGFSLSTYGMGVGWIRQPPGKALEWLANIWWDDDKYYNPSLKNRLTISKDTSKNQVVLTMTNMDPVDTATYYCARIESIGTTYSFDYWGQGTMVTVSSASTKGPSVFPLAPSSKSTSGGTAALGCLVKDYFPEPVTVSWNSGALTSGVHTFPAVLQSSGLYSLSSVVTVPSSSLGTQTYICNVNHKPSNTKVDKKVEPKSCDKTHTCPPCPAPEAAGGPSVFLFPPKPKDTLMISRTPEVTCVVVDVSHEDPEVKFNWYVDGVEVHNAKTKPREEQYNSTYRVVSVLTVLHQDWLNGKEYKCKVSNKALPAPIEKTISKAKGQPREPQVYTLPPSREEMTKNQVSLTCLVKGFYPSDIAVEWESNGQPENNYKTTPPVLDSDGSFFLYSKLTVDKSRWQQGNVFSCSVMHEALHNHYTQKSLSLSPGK
light: DTVLTQSPATLSLSPGERATLSCRASESVSTHMHWYQQKPGQAPRLLIYGASNLESGVPARFSGSGSGTDFTLTISSLEPEDFAVYFCQQSWNDPFTFGQGTKLEIKRTVAAPSVFIFPPEFVLTQSPGTLSLSPGERATLSCERSSGDIGDSYVSWYQQKPGQAPRLVIYADDQRPSGIPDRFSGSGSGTDFTLTISRLEPEDFAVYYCQSYDINIDIVFGGGTKVEIKGTVAAPSVFIFPPSDEQLKSGTASVVCLLNNFYPREAKVQWKVDNALQSGNSQESVTEQDSKDSTYSLSSTLTLSKADYEKHKVYACEVTHQGLSSPVTKSFNRGEC
Potency IC50 (nM) ratPDGF-BB (NIH-3T3 proliferation) (recombinant rat PDGF-BB): 0.65 nM | Potency IC50 (nM) mPDGF-BB (NIH-3T3 proliferation) [2]: 0.29 nM

B10: hBEW-1E3.1 (antibody, V domains shown)
VH: EIQLVQSGSELKKPGASVKVSCKASGYPFTNSGMYWVKQAPGQGLEYMGWINTEAGKPTYADDFKGRFVFSLDTSVSTAYLQISSLKAEDTAVYFCARWGYISDNSYGWFDYWGQGTLVTVSS
VL: ETVLTQSPATLSLSPGERATLSCRASEGVYSYMHWYQQKPGQQPRLLIYKASNLASGVPARFSGSGSGTDFTLTISSLEPEDFAVYFCHQNWNDPLTFGQGTKLEIK
notes: Humanized IgG
hVEGF165 IC50 (nM), HMVEC-d proliferation (Human VEGF-A 165 [5]): 0.138 nM | Kd (Human VEGF-A 165 [6]): 7.7 pM | kon (Human VEGF-A 165 [6]): 1.1e+07 M⁻¹ s⁻¹

B11: hBEW-1E3.4 (antibody, V domains shown)
VH: B10 VH
VL: ATQLTQSPSSLSASVGDRVTISCRASEGVYSYMHWYQQKPGKQPKLLIYKASNLASGVPSRFSGSGSGTDFTLTISSLQPEDFATYFCHQNWNDPLTFGQGTKLEIK
notes: Humanized IgG
hVEGF165 IC50 (nM), HMVEC-d proliferation (Human VEGF-A 165 [5]): 0.212 nM | Kd (Human VEGF-A 165 [6]): 9.7 pM | kon (Human VEGF-A 165 [6]): 9.8e+06 M⁻¹ s⁻¹

Continued, values first:

IC50 (Human VEGF-A 165 [1]): 124 pM
B1: BEW-9E3-B9 (antibody, IgG2a, V domains shown)
VH: QIQLVQSGPELKKPGESVKISCKASGYTFTNYGMYWVKQAPGQGLQYMGWINTETGKPTYADDFKGRFVFFLETSASTAFLQINNLKNEDMATYFCARPSDYYDGFWFPYWGQGALVTVSS
VL: DTILTQSPALAVSPGERISISCRASEGVNSYMHWYQQNPGQQPKLLIYKASNLASGVPARFSGSGSGTDFTLTIDPVEADDTATYFCQQSWNDPLTFGSGTKLEIK
notes: as for B5

IC50 (Human VEGF-A 165 [1]): 420 pM
B4: BEW-10H2-B9 (antibody, IgG2b, V domains shown)
VH: QIQLVQSGPELKKPGESVKISCKASGYSFTNFGLYWVKQAPGQGLQYMGWIDTETGKPTYADDFRGRFVFFLETSASTAYLQINNLKNEDMATYFCARVYGYPSWYFDFWGPGTMVTVSS
VL: DIQMTQSPASLSTSLEEIVTITCQASQDIDNYLSWYQQKPGKSPQLLIHSATSLADGVPSRFSGSRSGTQFSLKIHRLQVEDTGIYYCLQHFFPPWTFGGGTKLELK
notes: as for B3

hVEGF165 IC50 (nM), HMVEC-d proliferation (Human VEGF-A 165 [5]): 0.184 nM | Kd (Human VEGF-A 165 [6]): 10 pM | kon (Human VEGF-A 165 [6]): 1e+07 M⁻¹ s⁻¹
B12: hBEW-1E3.5 (antibody, V domains shown)
VH: B10 VH with S9A, L11V, V69T, S71T, V76T, Q82E, S84R, K87R, A88S, E89D
VL: B11 VL
notes: Humanized IgG

hVEGF165 IC50 (nM), HMVEC-d proliferation (Human VEGF-A 165 [5]): 0.161 nM | Kd (Human VEGF-A 165 [6]): 9.2 pM | kon (Human VEGF-A 165 [6]): 1.1e+07 M⁻¹ s⁻¹
B13: hBEW-1E3.2 (antibody, V domains shown)
VH: B10 VH with S9A, L11V, V69T, S71T, V76T, Q82E, S84R, K87R, A88S, E89D
VL: B10 VL
notes: Humanized IgG
